What is called stoichiometry N is a count of units in the complex or per binding partner.

Results on two molecules are retold here after article PMC11834968 (RSC Chemical Biology, 2025).

Assay [1] concerns the target Human recombinant fibroblast activation protein alpha (human, UniProt Q12884, glycosylated (sites not given)). Put plainly: cross-linking + other: mass photometry.
For assay [2], the target named is Biotinylated dipeptidyl peptidase IV (DPP4) (Homo sapiens, UniProt P27487, biotin (site not given)). Put plainly: BLI. In general terms: BLI is a label-free optical method that tracks binding on a fibre tip over time.
Chain of Biotinylated dipeptidyl peptidase IV (DPP4) (P27487 39-766): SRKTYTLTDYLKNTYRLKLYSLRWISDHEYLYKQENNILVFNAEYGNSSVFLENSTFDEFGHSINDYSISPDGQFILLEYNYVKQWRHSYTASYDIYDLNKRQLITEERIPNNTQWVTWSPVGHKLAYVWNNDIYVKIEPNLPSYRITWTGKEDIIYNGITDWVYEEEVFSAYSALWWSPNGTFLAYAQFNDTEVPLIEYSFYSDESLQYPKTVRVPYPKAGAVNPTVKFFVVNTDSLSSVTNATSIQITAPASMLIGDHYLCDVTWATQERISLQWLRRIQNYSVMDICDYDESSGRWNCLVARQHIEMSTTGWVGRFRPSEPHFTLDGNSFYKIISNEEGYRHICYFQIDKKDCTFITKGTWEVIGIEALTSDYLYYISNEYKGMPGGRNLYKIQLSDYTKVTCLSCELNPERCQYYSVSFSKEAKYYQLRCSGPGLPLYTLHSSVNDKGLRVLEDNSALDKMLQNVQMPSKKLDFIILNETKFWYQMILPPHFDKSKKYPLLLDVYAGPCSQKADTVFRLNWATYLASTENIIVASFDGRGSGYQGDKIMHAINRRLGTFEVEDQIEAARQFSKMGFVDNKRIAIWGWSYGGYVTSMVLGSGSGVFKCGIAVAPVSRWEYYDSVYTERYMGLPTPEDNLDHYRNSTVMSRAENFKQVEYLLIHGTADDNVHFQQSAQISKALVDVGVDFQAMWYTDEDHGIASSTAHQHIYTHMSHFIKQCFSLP

Chain of Human recombinant fibroblast activation protein alpha (Q12884 27-760): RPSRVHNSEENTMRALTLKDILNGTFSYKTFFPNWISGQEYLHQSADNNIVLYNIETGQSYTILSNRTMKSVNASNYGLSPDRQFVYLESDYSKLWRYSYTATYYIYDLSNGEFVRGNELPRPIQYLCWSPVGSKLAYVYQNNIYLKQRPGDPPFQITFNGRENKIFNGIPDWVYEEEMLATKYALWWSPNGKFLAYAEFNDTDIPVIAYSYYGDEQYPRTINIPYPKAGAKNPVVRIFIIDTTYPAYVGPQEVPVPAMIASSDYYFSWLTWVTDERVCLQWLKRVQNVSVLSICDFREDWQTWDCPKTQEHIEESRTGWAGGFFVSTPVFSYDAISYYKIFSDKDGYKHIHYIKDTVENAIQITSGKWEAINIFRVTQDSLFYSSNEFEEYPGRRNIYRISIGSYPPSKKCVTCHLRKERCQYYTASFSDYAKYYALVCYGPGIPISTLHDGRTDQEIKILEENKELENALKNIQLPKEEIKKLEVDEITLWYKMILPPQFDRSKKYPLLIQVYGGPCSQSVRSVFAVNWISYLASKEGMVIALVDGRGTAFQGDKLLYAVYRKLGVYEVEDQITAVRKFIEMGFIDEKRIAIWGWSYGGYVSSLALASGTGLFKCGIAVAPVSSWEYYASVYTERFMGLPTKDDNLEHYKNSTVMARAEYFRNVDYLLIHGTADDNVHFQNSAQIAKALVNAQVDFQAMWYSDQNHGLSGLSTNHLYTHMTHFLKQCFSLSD

B1: SUMO-I3 (single domain antibody I3 fused to an N-terminal 6X His-SUMO-FLAG tag) (VHH)
VHH: EVQLVESGGGLVQPGGSLRLSCAASGFTFSSYAMSWVRQAPGKGLEWVSAINSGGGSTSYADSVKGRFTISRDNAKNTLYLQMNSLKPEDTAVYYCAKARTGWSLAVPSFGSWGQGTQVTVSS
On to B1, for which the “stoichiometry N” value in assay [1] is 1.

B2: MBP-I3 (single domain antibody I3 with N-terminal MBP fusion and C-terminal 6X His-tag) (VHH)
VHH: EVQLVESGGGLVQPGGSLRLSCAASGFTFSSYAMSWVRQAPGKGLEWVSAINSGGGSTSYADSVKGRFTISRDNAKNTLYLQMNSLKPEDTAVYYCAKARTGWSLAVPSFGSWGQGTQVTVSS
Regarding B2, the binding result in assay [2] is listed as “no binding”.
